Measurements reported in patent publication US20240059799A1 (Pfizer, published 2024).

T1: recombinant human TL1A (human, UniProt O95150 71-251)
T1 chain: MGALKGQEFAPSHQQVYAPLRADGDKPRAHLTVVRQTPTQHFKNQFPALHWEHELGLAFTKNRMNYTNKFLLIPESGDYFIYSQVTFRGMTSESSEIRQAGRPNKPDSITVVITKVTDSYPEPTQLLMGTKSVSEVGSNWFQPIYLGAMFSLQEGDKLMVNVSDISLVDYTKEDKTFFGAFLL


Tests used:
recombinant human TL1A [1] = molecular target: T1, recombinant human TL1A; experiment: cell-based or functional assay
human serum albumin = molecular target: T2, human serum albumin (human, UniProt P02768 25-609); experiment: direct binding ELISA on plate-coated HSA (1 ug/mL), anti-human IgG-Fc HRP, OD450
T2 construct: also called HSA
Method: (§1) For the direct binding ELISA method to HSA or BSA, 96-well high binding plates (Corning, product number 3590) were coated with 1 μg/mL recombinant HSA or BSA in 100 μL/well in PBS overnight at 4° C. Plates were then blocked in PBS+0.02% casein solution and washed with PBS+0.05% Tween-20 following standard ELISA protocol. […] Plates were washed with PBS+0.05% Tween-20 following standard ELISA protocol, and goat anti-human IgG-Fc HRP conjugated secondary antibody (Pierce, #31413) diluted to 1:10,000 in assay buffer was added to plates and incubated for 1 hour at room temperature. Next, the plates were washed with PBS+0.05% Tween-20 following standard ELISA protocol, and then TMB substrate (BioFX Laboratories, catalog number TMBW-0100-01) was added to plates.
(§2) Reactions were stopped after approximately 5 minutes by adding 0.18 M ortho-phosphoric acid to each well and absorbance was read at 450 nm. […] For this method, samples diluted to 0.3 mg/mL were dispensed into the sample tray of a MicroCal VP-Capillary DSC with Autosampler (Malvern Instruments, Inc.), equilibrated for 5 minutes at 10° C. and then scanned up to 110° C. at a rate of 100° C. per/hour. A filtering period of 16 seconds was selected. Raw data was baseline corrected and the protein concentration was normalized. Origin Software 7.0 (Origin Lab Corporation, Northampton, MA) was used to fit the data to an MN2-State Model with an appropriate number of transitions.

recombinant human TL1A [2] = molecular target: T1, recombinant human TL1A; experiment: SPR, recombinant human TL1A
bovine serum albumin = molecular target: T3, bovine serum albumin (bovine, UniProt P02769 25-607); experiment: direct binding ELISA on plate-coated BSA (1 ug/mL), anti-human IgG-Fc HRP, OD450
T3 construct: also called BSA
Method: as §1, §2

T3 sequence (P02769 25-607 limits assumed): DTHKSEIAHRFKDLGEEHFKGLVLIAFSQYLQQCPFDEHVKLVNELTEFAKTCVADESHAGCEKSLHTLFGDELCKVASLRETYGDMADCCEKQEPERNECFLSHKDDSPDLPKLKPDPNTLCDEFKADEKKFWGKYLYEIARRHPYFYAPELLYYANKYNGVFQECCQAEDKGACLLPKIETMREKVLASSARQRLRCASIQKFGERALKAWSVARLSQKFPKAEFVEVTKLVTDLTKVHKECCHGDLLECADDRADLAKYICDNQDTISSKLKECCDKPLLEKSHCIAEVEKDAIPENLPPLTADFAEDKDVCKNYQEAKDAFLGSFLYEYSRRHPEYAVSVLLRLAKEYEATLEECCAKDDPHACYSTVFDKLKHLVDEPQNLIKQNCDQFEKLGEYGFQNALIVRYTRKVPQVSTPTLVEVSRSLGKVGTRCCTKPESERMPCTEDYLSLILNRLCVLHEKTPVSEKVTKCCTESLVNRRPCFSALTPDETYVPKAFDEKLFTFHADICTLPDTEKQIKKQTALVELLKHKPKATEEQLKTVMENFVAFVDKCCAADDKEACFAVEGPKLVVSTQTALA

NFκB Bioassay IC50 (recombinant human TL1A [1]) [nM]	binding result (human serum albumin)	Kd (recombinant human TL1A [2]) [nM]	koff (recombinant human TL1A [2]) [s⁻¹]	kon (recombinant human TL1A [2]) [M⁻¹ s⁻¹]	binding result (bovine serum albumin)	Binder
1.66	no binding (tested: 1e-6 M)	0.285	4.95e-05	173000	no binding (tested: 1e-6 M)	TL1A-0373 (bispecific antibody, not shown: human IgG1 constant region with effector-minimizing, KiH and LS mutations) heavy 1: QVQLVQSGAEVKKPGASVKVSCKASGYDYTYYGISWVRQAPGQGLEWMGWISTYNTGTHYAPSLQGRVTMTTDTSTSTAYMELRSLRSDDTAVYYCARESYYGSGAFRGGMDVWGQGTTVTVSSASTKGPSVFPLAPSSKSTSGGTAALGCLVKDYFPEPVTVSWNSGALTSGVHTFPAVLQSSGLYSLSSVVTVPSSSLGTQTYICNVNHKPSNTKVDKKVEPKSCDKTHTCPPCPAPEAAGAPSVFLFPPKPKDTLMISRTPEVTCVVVDVSHEDPEVKFNWYVDGVEVHNAKTKPREEQYNSTYRVVSVLTVLHQDWLNGKEYKCKVSNKALPAPIEKTISKAKGQPREPQVCTLPPSREEMTKNQVSLWCLVKGFYPSDIAVEWESNGQPENNYKTTPPVLDSDGSFFLYSKLTVDKSRWQQGNVFSCSVLHEALHSHYTQKSLSLSPGK heavy 2: not shown light: not shown
1.35	no binding (tested: 1e-6 M)	0.232	4.9e-05	211000	no binding (tested: 1e-6 M)	TL1A-0375 (bispecific antibody, also called TL1A-0375 MBsAb; not shown: human IgG1 constant region with effector-minimizing, KiH and LS mutations) heavy 1: QVQLVQSGAEVKKPGASVKVSCKASGYDYTYYGISWVRQAPGQGLEWMGWISTYNTGTHYAPSLQGRVTMTTDTSTSTAYMELRSLRSDDTAVYYCARESYYGSGAFRGGMDVWGQGTTVTVSSASTKGPSVFPLAPSSKSTSGGTAALGCLVKDYFPEPVTVSWNSGALTSGVHTFPAVLQSSGLYSLSSVVTVPSSSLGTQTYICNVNHKPSNTKVDKKVEPKSCDKTHTCPPCPAPEAAGAPSVFLFPPKPKDTLMISRTPEVTCVVVDVSHEDPEVKFNWYVDGVEVHNAKTKPREEQYNSTYRVVSVLTVLHQDWLNGKEYKCKVSNKALPAPIEKTISKAKGQPREPQVCTLPPSREEMTKNQVSLWCLVKGFYPSDIAVEWESNGQPENNYKTTPPVLDSDGSFFLYSKLTVDKSRWQQGNVFSCSVLHEALHSHYTQKSLSLSPGK heavy 2: not shown light: not shown

The remaining lines, values behind:

Binder	NFκB Bioassay IC50 (recombinant human TL1A [1]) [nM]	binding result (human serum albumin)	Kd (recombinant human TL1A [2]) [nM]	koff (recombinant human TL1A [2]) [s⁻¹]	kon (recombinant human TL1A [2]) [M⁻¹ s⁻¹]	binding result (bovine serum albumin)
TL1A-0368 (bispecific antibody, not shown: human IgG1 constant region with effector-minimizing, KiH and LS mutations) heavy 1: QVQLVQSGAEVKKPGASVKVSCKASGYDYTYYGISWVRQAPGQGLEWMGWISTYNTGTHYAPSLQGRVTMTTDTSTSTAYMELRSLRSDDTAVYYCARESYYGSGAFRGGMDVWGQGTTVTVSSASTKGPSVFPLAPSSKSTSGGTAALGCLVKDYFPEPVTVSWNSGALTSGVHTFPAVLQSSGLYSLSSVVTVPSSSLGTQTYICNVNHKPSNTKVDKKVEPKSCDKTHTCPPCPAPEAAGAPSVFLFPPKPKDTLMISRTPEVTCVVVDVSHEDPEVKFNWYVDGVEVHNAKTKPREEQYNSTYRVVSVLTVLHQDWLNGKEYKCKVSNKALPAPIEKTISKAKGQPREPQVCTLPPSREEMTKNQVSLWCLVKGFYPSDIAVEWESNGQPENNYKTTPPVLDSDGSFFLYSKLTVDKSRWQQGNVFSCSVLHEALHSHYTQKSLSLSPGK heavy 2: QVQLVQSGAEVKKPGASVKVSCKASGYTFTSYGISWVRQAPGQGLEWMGWISAYNGNTNYAQKLQGRVTMTTDTSTSTAYMELRSLRSDDTAVYYCARESYYGSEAFRAGMDVWGQGTTVTVSS light: not shown	1.56	no binding (tested: 1e-6 M)	0.242	4.61e-05	191000	no binding (tested: 1e-6 M)
TL1A-0374 (bispecific antibody, also called TL1A-0374 MBsAb; not shown: human IgG1 constant region with effector-minimizing, KiH and LS mutations) heavy 1: QVQLVQSGAEVKKPGASVKVSCKASGYDYTYYGISWVRQAPGQGLEWMGWISTYNTGTHYAPSLQGRVTMTTDTSTSTAYMELRSLRSDDTAVYYCARESYYGSGAFRGGMDVWGQGTTVTVSSASTKGPSVFPLAPSSKSTSGGTAALGCLVKDYFPEPVTVSWNSGALTSGVHTFPAVLQSSGLYSLSSVVTVPSSSLGTQTYICNVNHKPSNTKVDKKVEPKSCDKTHTCPPCPAPEAAGAPSVFLFPPKPKDTLMISRTPEVTCVVVDVSHEDPEVKFNWYVDGVEVHNAKTKPREEQYNSTYRVVSVLTVLHQDWLNGKEYKCKVSNKALPAPIEKTISKAKGQPREPQVCTLPPSREEMTKNQVSLWCLVKGFYPSDIAVEWESNGQPENNYKTTPPVLDSDGSFFLYSKLTVDKSRWQQGNVFSCSVLHEALHSHYTQKSLSLSPGK heavy 2: not shown light: not shown	1.49	no binding (tested: 1e-6 M)	0.268	5.59e-05	209000	no binding (tested: 1e-6 M)
TL1A-0326 (antibody, human IgG1, kappa, one-armed (monovalent) antibody derived from TL1A-0260) heavy 1: QVQLVQSGAEVKKPGASVKVSCKASGYDYTYYGISWVRQAPGQGLEWMGWISTYNTGTHYAPSLQGRVTMTTDTSTSTAYMELRSLRSDDTAVYYCARESYYGSGAFRGGMDVWGQGTTVTVSSASTKGPSVFPLAPSSKSTSGGTAALGCLVKDYFPEPVTVSWNSGALTSGVHTFPAVLQSSGLYSLSSVVTVPSSSLGTQTYICNVNHKPSNTKVDKKVEPKSCDKTHTCPPCPAPEAAGAPSVFLFPPKPKDTLMISRTPEVTCVVVDVSHEDPEVKFNWYVDGVEVHNAKTKPREEQYNSTYRVVSVLTVLHQDWLNGKEYKCKVSNKALPAPIEKTISKAKGQPREPQVCTLPPSREEMTKNQVSLWCLVKGFYPSDIAVEWESNGQPENNYKTTPPVLDSDGSFFLYSKLTVDKSRWQQGNVFSCSVLHEALHSHYTQKSLSLSPGK heavy 2: EPKSSDKTHTCPPCPAPEAAGAPSVFLFPPKPKDTLMISRTPEVTCVVVDVSHEDPEVKFNWYVDGVEVHNAKTKPREEQYNSTYRVVSVLTVLHQDWLNGKEYKCKVSNKALPAPIEKTISKAKGQPREPQVYTLPPCREEMTKNQVSLSCAVKGFYPSDIAVEWESNGQPENNYKTTPPVLDSDGSFFLVSKLTVDKSRWQQGNVFSCSVLHEALHSHYTQKSLSLSPGK light: not shown	1.28	no binding (tested: 1e-6 M)	0.292	5.84e-05	200000	no binding (tested: 1e-6 M)
TL1A-0371 (bispecific antibody, also called TL1A-0371 MBsAb; not shown: human IgG1 constant region with effector-minimizing, KiH and LS mutations) heavy 1: QVQLVQSGAEVKKPGASVKVSCKASGYDYTYYGISWVRQAPGQGLEWMGWISTYNTGTHYAPSLQGRVTMTTDTSTSTAYMELRSLRSDDTAVYYCARESYYGSGAFRGGMDVWGQGTTVTVSSASTKGPSVFPLAPSSKSTSGGTAALGCLVKDYFPEPVTVSWNSGALTSGVHTFPAVLQSSGLYSLSSVVTVPSSSLGTQTYICNVNHKPSNTKVDKKVEPKSCDKTHTCPPCPAPEAAGAPSVFLFPPKPKDTLMISRTPEVTCVVVDVSHEDPEVKFNWYVDGVEVHNAKTKPREEQYNSTYRVVSVLTVLHQDWLNGKEYKCKVSNKALPAPIEKTISKAKGQPREPQVCTLPPSREEMTKNQVSLWCLVKGFYPSDIAVEWESNGQPENNYKTTPPVLDSDGSFFLYSKLTVDKSRWQQGNVFSCSVLHEALHSHYTQKSLSLSPGK heavy 2: not shown light: not shown	1.37	no binding (tested: 1e-6 M)	0.261	4.36e-05	168000	no binding (tested: 1e-6 M)
TL1A-0370 (bispecific antibody, also called TL1A-0370 MBsAb; not shown: human IgG1 constant region with effector-minimizing, KiH and LS mutations) heavy 1: QVQLVQSGAEVKKPGASVKVSCKASGYDYTYYGISWVRQAPGQGLEWMGWISTYNTGTHYAPSLQGRVTMTTDTSTSTAYMELRSLRSDDTAVYYCARESYYGSGAFRGGMDVWGQGTTVTVSSASTKGPSVFPLAPSSKSTSGGTAALGCLVKDYFPEPVTVSWNSGALTSGVHTFPAVLQSSGLYSLSSVVTVPSSSLGTQTYICNVNHKPSNTKVDKKVEPKSCDKTHTCPPCPAPEAAGAPSVFLFPPKPKDTLMISRTPEVTCVVVDVSHEDPEVKFNWYVDGVEVHNAKTKPREEQYNSTYRVVSVLTVLHQDWLNGKEYKCKVSNKALPAPIEKTISKAKGQPREPQVCTLPPSREEMTKNQVSLWCLVKGFYPSDIAVEWESNGQPENNYKTTPPVLDSDGSFFLYSKLTVDKSRWQQGNVFSCSVLHEALHSHYTQKSLSLSPGK heavy 2: QVQLVQSGAEVKKPGASVKVSCKASGYTFTSYGISWVRQAPGQGLEWMGWISAYNGNTNYAQKLQGRVTMTTDTSTSTAYMELRSLRSDDTAVYYCARESSYGSEAFRAGMDVWGQGTTVTVSS light: not shown	1.46	no binding (tested: 1e-6 M)	0.303	5.73e-05	190000	no binding (tested: 1e-6 M)
